Results as given in PMC8694623 (Science Advances, 2021).

Experiments:
negative-stain EM = biological target: the molecule itself; experiment: negative-stain EM
cryo-EM structure = biological target: the molecule itself; experiment: cryo-EM structure

Row | Protein | binding result (negative-stain EM) | binding result (cryo-EM structure)
1 | Atm1-L657 truncation mutant (residues 92 to 656), C-terminally Strep-tagged (domain or fragment, S. cerevisiae, UniProt P40416 92-656, looked up) LKDLFRYIWPKGNNKVRIRVLIALGLLISAKILNVQVPFFFKQTIDSMNIAWDDPTVALPAAIGLTILCYGVARFGSVLFGELRNAVFAKVAQNAIRTVSLQTFQHLMKLDLGWHLSRQTGGLTRAMDRGTKGISQVLTAMVFHIIPISFEISVVCGILTYQFGASFAAITFSTMLLYSIFTIKTTAWRTHFRRDANKADNKAASVALDSLINFEAVKYFNNEKYLADKYNGSLMNYRDSQIKVSQSLAFLNSGQNLIFTTALTAMMYMGCTGVIGGNLTVGDLVLINQLVFQLSVPLNFLGSVYRDLKQSLIDMETLFKLRKNEVKIKNAERPLMLPENVPYDITFENVTFGYHPDRKILKNASFTIPAGWKTAIVGSSGSGKSTILKLVFRFYDPESGRILINGRDIKEYDIDALRKVIGVVPQDTPLFNDTIWENVKFGRIDATDEEVITVVEKAQLAPLIKKLPQGFDTIVGERGLMISGGEKQRLAIARVLLKNARIMFFDEATSALDTHTEQALLRTIRDNFTSGSRTSVYIAHRLRTIADADKIIVLDNGRVREEGKH | binds | 
2 | S. cerevisiae Atm1-Strep (ABC transporter of mitochondria 1), wild type (natural protein, UniProt P40416 92-690, looked up) LKDLFRYIWPKGNNKVRIRVLIALGLLISAKILNVQVPFFFKQTIDSMNIAWDDPTVALPAAIGLTILCYGVARFGSVLFGELRNAVFAKVAQNAIRTVSLQTFQHLMKLDLGWHLSRQTGGLTRAMDRGTKGISQVLTAMVFHIIPISFEISVVCGILTYQFGASFAAITFSTMLLYSIFTIKTTAWRTHFRRDANKADNKAASVALDSLINFEAVKYFNNEKYLADKYNGSLMNYRDSQIKVSQSLAFLNSGQNLIFTTALTAMMYMGCTGVIGGNLTVGDLVLINQLVFQLSVPLNFLGSVYRDLKQSLIDMETLFKLRKNEVKIKNAERPLMLPENVPYDITFENVTFGYHPDRKILKNASFTIPAGWKTAIVGSSGSGKSTILKLVFRFYDPESGRILINGRDIKEYDIDALRKVIGVVPQDTPLFNDTIWENVKFGRIDATDEEVITVVEKAQLAPLIKKLPQGFDTIVGERGLMISGGEKQRLAIARVLLKNARIMFFDEATSALDTHTEQALLRTIRDNFTSGSRTSVYIAHRLRTIADADKIIVLDNGRVREEGKHLELLAMPGSLYRELWTIQEDLDHLENELKDQQEL |  | binds
